Publication doi:10.1101/2020.01.08.898304 (bioRxiv, 2020)
Residue numbers refer to the chain shown, from its start.

Assays:
[1] = target: T1, Jacob (recombinant protein used for ITC) (UniProt Q9EPI6 1-532); assay: ITC
T1 sequence (looked up): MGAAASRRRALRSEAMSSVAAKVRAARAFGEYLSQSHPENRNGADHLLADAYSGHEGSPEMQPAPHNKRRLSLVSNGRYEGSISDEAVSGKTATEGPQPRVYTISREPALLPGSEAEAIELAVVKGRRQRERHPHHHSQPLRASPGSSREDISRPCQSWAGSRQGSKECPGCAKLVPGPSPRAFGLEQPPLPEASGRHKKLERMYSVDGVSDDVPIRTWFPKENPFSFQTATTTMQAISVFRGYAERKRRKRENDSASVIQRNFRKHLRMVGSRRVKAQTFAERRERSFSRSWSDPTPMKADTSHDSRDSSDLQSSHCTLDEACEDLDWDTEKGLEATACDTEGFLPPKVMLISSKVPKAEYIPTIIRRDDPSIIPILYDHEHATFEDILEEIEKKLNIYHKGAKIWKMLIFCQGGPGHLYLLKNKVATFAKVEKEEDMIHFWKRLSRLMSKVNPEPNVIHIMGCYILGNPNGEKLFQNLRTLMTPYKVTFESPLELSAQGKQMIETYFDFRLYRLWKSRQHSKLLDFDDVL

MBP-Jacob-45-228 = target: T2, MBP-Jacob-45-228 (UniProt Q9EPI6 45-228); assay: pull-down
T2 sequence (looked up): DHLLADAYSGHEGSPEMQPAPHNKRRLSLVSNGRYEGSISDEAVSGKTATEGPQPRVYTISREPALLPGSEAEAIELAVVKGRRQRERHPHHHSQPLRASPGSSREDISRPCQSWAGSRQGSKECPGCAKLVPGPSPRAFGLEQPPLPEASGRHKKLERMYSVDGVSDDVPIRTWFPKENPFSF

MBP-Jacob-45-228-180A = target: T3, MBP-Jacob-45-228-180A (UniProt Q9EPI6 45-228, S180A); assay: pull-down
T3 sequence (looked up): T2 sequence (looked up) with S136A

B1: GST-LMO4 (natural protein, UniProt P61968 1-165, looked up)
chain: MVNPGSSSQPPPVTAGSLSWKRCAGCGGKIADRFLLYAMDSYWHSRCLKCSCCQAQLGDIGTSCYTKSGMILCRNDYIRLFGNSGACSACGQSIPASELVMRAQGNVYHLKCFTCSTCRNRLVPGDRFHYINGSLFCEHDRPTALINGHLNSLQSNPLLPDQKVC
Kd [1]: 370 nM
binding result (MBP-Jacob-45-228): binds
binding result (MBP-Jacob-45-228-180A): binds
